Laboratory results taken from doi:10.1101/2021.08.21.457230.

Biological target: T1, human SLC44A1 (human), Q8WWI5
T1 chain: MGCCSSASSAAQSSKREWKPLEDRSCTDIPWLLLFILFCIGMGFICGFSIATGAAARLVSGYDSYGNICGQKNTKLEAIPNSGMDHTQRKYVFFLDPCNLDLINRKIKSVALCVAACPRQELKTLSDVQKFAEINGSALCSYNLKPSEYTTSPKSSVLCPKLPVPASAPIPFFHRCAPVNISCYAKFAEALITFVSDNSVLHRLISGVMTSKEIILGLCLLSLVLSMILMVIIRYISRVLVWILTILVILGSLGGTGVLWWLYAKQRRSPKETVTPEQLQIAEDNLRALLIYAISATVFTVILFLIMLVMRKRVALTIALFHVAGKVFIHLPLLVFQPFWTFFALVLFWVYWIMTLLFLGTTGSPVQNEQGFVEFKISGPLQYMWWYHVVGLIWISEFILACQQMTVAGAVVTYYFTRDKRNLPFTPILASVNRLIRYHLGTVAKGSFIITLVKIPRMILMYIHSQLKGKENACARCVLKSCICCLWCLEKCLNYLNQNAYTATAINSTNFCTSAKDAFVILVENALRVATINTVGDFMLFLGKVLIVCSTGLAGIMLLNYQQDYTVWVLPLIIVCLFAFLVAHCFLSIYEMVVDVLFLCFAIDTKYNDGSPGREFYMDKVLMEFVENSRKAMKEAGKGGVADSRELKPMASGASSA
Test: cryo-EM structure
Details: remark: other sources report otherwise

- stoichiometry N: 2
B1: human SLC44A1, Q8WWI5 1-657 (natural protein)
chain: T1 chain
